According to publication PMC4506495:
Numbering of substitutions follows the chain as printed. pKd: −log10 of the molar value. One block for each substance: values may come before it.

Columns and labels:
[1] = target: Magnetospirillum gryphiswaldense MSR-1 Fur C9L/M14L/M16V-triple mutant (Magnetospirillum gryphiswaldense MSR-1); assay: crystal structure; holo-Fur with 1 mM MnCl2, 1.9 Å; 10% PEG3000, 0.1 M CHES pH 9.0
[2] = target: Magnetospirillum gryphiswaldense MSR-1 Fur C9L/M14L/M16V-triple mutant (Magnetospirillum gryphiswaldense MSR-1); assay: crystal structure; Fur-Mn2+ with the 25-bp feoAB1 operator dsDNA (three base-pair mutations), 2.6 Å (SeMet form 2.82 Å)
[3] = target: T1, MgFur E108A/H125A (metal site 2 mutant) E108A;H125A (Magnetospirillum gryphiswaldense MSR-1) (UniProt V6F4Q0); assay: SPR; conditions: 1 mM Mn2+, SPR: 20 mM Tris-HCl pH 8.0, 150 mM NaCl, 1 mM MnCl2, 0.005% Tween20, 25 C, EMSA: 40 mM HEPES pH 7.0, 125 mM NaCl, 2 mM FeSO4/MnCl2/EDTA, footprinting: …
T1 sequence: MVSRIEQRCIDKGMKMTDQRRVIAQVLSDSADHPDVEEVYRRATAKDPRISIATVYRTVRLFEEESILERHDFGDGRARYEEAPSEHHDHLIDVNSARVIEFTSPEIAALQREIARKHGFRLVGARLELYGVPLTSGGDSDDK

[4] = target: T2, MgFur K15A K15A (Magnetospirillum gryphiswaldense MSR-1) (UniProt V6F4Q0); assay: SPR; conditions: 1 mM Mn2+, SPR: 20 mM Tris-HCl pH 8.0, 150 mM NaCl, 1 mM MnCl2, 0.005% Tween20, 25 C, EMSA: 40 mM HEPES pH 7.0, 125 mM NaCl, 2 mM FeSO4/MnCl2/EDTA, footprinting: …
T2 sequence: T1 sequence with K15A, A108E, A125H

[5] = target: T3, MgFur WT (Magnetospirillum gryphiswaldense MSR-1) (UniProt V6F4Q0); assay: SPR; conditions: 1 mM Mn2+, SPR: 20 mM Tris-HCl pH 8.0, 150 mM NaCl, 1 mM MnCl2, 0.005% Tween20, 25 C, EMSA: 40 mM HEPES pH 7.0, 125 mM NaCl, 2 mM FeSO4/MnCl2/EDTA, footprinting: …
T3 sequence: T1 sequence with A108E, A125H

[6] = target: Magnetospirillum gryphiswaldense MSR-1 ferric uptake regulator (Fur), wild type (Magnetospirillum gryphiswaldense MSR-1); assay: SEC; size-exclusion chromatography of apo-Fur in solution
[7] = target: Magnetospirillum gryphiswaldense MSR-1 ferric uptake regulator (Fur), wild type (Magnetospirillum gryphiswaldense MSR-1); assay: AUC; analytical ultracentrifugation of apo-Fur in solution
[8] = target: Magnetospirillum gryphiswaldense MSR-1 ferric uptake regulator (Fur), wild type (Magnetospirillum gryphiswaldense MSR-1); assay: crystal structure; apo-Fur without transition metal ions, 1.55 Å; crystals from (NH4)2SO4, 0.1 M sodium citrate pH 5.5

stoichiometry N [1]: 2 | stoichiometry N [2]: 2
Substance: Magnetospirillum gryphiswaldense MSR-1 Fur C9L/M14L/M16V-triple mutant (natural protein)

Substance: TTAATCGCAACTCATTCGCAATTGC (double strand) [feoAB1 operator (SPR)]
pKd [3]: 6.57 | pKd [4]: 6.01 | pKd [5]: 7.07

stoichiometry N [6]: 2 | stoichiometry N [7]: 2 | stoichiometry N [8]: 2
Substance: Magnetospirillum gryphiswaldense MSR-1 ferric uptake regulator (Fur), wild type (natural protein)
